From patent publication US20250250314

Target: UCM12
Sequence (chain, as listed by the source, chain 1 of 3, other chains not shown): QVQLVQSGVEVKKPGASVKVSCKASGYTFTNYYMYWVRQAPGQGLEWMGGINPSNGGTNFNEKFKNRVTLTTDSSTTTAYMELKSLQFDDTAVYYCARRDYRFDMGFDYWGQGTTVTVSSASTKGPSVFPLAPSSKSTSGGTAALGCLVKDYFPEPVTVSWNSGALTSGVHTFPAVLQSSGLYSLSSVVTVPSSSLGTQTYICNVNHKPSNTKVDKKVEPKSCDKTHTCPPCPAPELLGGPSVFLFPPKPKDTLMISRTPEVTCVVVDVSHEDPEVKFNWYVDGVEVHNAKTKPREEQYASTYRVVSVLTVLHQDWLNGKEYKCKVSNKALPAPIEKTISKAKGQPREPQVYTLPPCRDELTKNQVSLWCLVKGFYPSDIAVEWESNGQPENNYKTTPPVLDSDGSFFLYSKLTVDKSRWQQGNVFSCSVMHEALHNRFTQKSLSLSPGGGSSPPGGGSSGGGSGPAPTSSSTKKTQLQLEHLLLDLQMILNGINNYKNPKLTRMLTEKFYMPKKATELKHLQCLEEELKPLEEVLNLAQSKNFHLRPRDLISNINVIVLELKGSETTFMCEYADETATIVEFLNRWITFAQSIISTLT
Sequence (chain, as listed by the source, chain 2 of 3, other chains not shown): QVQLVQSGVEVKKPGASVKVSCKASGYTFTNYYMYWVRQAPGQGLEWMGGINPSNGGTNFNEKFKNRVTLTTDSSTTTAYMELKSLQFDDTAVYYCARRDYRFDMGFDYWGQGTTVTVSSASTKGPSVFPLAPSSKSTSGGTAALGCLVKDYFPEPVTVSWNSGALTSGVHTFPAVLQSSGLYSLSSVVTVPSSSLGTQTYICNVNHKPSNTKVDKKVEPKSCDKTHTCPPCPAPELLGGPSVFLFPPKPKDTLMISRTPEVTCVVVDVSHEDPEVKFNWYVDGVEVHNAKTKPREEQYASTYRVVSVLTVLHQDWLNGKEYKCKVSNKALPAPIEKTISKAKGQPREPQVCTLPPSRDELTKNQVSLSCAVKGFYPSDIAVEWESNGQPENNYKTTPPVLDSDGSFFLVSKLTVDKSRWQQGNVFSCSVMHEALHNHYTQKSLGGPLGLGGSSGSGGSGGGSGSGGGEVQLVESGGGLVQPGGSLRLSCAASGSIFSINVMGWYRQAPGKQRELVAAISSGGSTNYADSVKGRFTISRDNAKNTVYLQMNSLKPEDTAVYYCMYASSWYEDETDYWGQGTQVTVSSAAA

B1: Matrix Metalloproteinase 1 (protein)
chain: FVLTEGNPRWEQTHLTYRIENYTPDLPRADVDHAIEKAFQLWSNVTPLTFTKVSEGQADIMISFVRGDHRDNSPFDGPGGNLAHAFQPGPGIGGDAHFDEDERWTNNFREYNLHRVAAHELGHSLGLSHSTDIGALMYPSYTFSGDVQLAQDDIDGIQAIYGRSQNPVQPIGPQTPKACDSKLTFDAITTIRGEVMFFKDRFYMRTNPFYPEVELNFISVFWPQLPNGLEAAYEFADRDEVRFFKGNKYWAVQGQNVLHGYPKDIYSSFGFPRTVKHIDAALSEENTGKTYFFVANKYWRYDEYKRSMDPGYPKMIAHDFPGIGHKVDAVFMKDGFFYFFHGTRQYKFDPKTKRILTLQKANSWFNCRKN
kcat/Km: 230 M⁻¹ s⁻¹

B2: MMP2 (protein)
chain: YNFFPRKPKWDKNQITYRIIGYTPDLDPETVDDAFARAFQVWSDVTPLRFSRIHDGEADIMINFGRWEHGDGYPFDGKDGLLAHAFAPGTGVGGDSHFDDDELWTLGEGQVVRVKYGNADGEYCKFPFLFNGKEYNSCTDTGRSDGFLWCSTTYNFEKDGKYGFCPHEALFTMGGNAEGQPCKFPFRFQGTSYDSCTTEGRTDGYRWCGTTEDYDRDKKYGFCPETAMSTVGGNSEGAPCVFPFTFLGNKYESCTSAGRSDGKMWCATTANYDDDRKWGFCPDQGYSLFLVAAHEFGHAMGLEHSQDPGALMAPIYTYTKNFRLSQDDIKGIQELYGASPDIDLGTGPTPTLGPVTPEICKQDIVFDGIAQIRGEIFFFKDRFIWRTVTPRDKPMGPLLVATFWPELPEKIDAVYEAPQEEKAVFFAGNEYWIYSASTLERGYPKPLTSLGLPPDVQRVDAAFNWSKNKKTYIFAGDKFWRYNEVKKKMDPGFPKLIADAWNAIPDNLDAVVDLQGGGHSYFFKGAYYLKLENQSLKSVKFGSIKSDWLGC
kcat/Km: 1900 M⁻¹ s⁻¹
